From patent US20080293626A1 (Johns Hopkins, published 2008)

Biological target: PEDF receptor (unidentified cell surface receptor on bovine retinal capillary endothelial cells)
Experiment: cell-based or functional assay

B1: PEDF 44 AA peptide (residues 78-121 of human PEDF) (peptide)
peptide: VLLSPLSVATALSALSLGAEQRTESIIHRALYYDLISSPDIHGT
B1 was tested, and the “inhibition of VEGF stimulated endothelial cell migration (BRCEC microchemotaxis chamber), IC50” value was 3 nM.
